For data set [1], the system named is T1, SF370.1 serine recombinase (SF370.1-HA-NLS) (Streptococcus pyogenes phage 370.1).
T1 sequence: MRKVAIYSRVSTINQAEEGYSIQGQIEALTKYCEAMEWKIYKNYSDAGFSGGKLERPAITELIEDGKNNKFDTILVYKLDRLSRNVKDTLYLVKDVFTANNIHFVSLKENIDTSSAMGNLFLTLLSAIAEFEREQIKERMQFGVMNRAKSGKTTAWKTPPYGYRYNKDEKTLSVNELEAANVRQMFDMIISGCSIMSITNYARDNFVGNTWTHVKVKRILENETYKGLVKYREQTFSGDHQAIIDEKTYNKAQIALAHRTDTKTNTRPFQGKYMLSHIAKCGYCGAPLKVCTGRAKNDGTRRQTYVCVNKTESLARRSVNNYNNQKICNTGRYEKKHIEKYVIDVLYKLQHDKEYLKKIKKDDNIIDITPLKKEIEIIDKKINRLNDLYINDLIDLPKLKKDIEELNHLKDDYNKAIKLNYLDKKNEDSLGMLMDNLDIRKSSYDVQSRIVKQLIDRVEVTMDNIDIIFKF
In words: cell_activity. Conditions: lettuce; 1 colony without recombinase.

In data set [2] the target is SPβc2 serine recombinase (SPβc2-HA-NLS) (Bacillus subtilis phage SPβc2) (UniProt O32006). In words: cell_activity. The following applies: lettuce initial screen; attP gave 27; background level.
Chain of SPβc2 serine recombinase (SPβc2-HA-NLS) (Bacillus subtilis phage SPβc2) (O32006 whole entry): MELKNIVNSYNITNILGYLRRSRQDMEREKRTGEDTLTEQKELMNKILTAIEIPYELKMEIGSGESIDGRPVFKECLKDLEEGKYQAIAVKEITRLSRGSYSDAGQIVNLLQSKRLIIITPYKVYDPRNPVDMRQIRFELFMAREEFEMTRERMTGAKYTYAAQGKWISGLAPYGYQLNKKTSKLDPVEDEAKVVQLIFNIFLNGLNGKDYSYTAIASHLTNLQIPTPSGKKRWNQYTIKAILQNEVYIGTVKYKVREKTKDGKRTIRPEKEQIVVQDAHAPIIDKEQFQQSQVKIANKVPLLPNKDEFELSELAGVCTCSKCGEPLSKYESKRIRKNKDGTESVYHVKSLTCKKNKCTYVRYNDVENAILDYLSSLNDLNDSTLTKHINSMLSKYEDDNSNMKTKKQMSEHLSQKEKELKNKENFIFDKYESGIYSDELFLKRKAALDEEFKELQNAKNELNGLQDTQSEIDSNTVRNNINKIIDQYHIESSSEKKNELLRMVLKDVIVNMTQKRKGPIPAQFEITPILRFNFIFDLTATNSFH

Consider “ATTTTTGTATCCAGTTCAATGGATATTTGATATAATCGTCTTAAAAAGGAGGTCGTGAAATGGATAAAAAAATACAGCGTTTTTCATGTACAACTATACTAGTTGTAGTGCCTAAATAATGCTTTTAAAACTTAAAAATAATATCGATGTTATCCATAGTAACCTCGACTCTATCTATCAATTGCTTAACTATCCTAGAT (double strand) [SF370 attP]”, for which, in data set [1], the activity (GFP+ Kan resistant colonies) is 4.
Turning to siteless reporter plasmid, the activity in data set [2] worked out at 1 GFP+ colony.

For the origin of these results see patent US20210395761.
